Measurements published in PMC7041945, “Misfolded proteins bind and activate death receptor 5 to trigger apoptosis during unresolved endoplasmic reticulum stress” (eLife, 2020).

How the values were obtained:
Type in all cases: cell-based, Homo sapiens
[1] = test system: caspase 8 in HCT116 lysates; test: Caspase 8 activity (caspase glo 8) of cell lysates / IP inputs; conditions: for average fold change rel to empty: mean of 4 dilutions
Protocol: Cells harvested from a 6-well plate were resuspended in 100 μl of lysis buffer (30 mM HEPES pH 7.2, 150 mM NaCl, 1% Triton X-100) and lysed via needle shearing (25G, 10 passes) followed by a 30 min incubation on ice. Supernatant was collected after centrifuging at 1000xg for 5 min. For the caspase activity assay, 10 μl of supernatant diluted with lysis buffer (1:25, 1:50, 1:100 to stay within linear range of luminescence measurements) was incubated with 10 μl of the luminogenic caspase glo 8 substrate (Promega #PRG8200) in a 384-white walled plate (Corning 3574) for 45 min at RT before measuring luminescence on a Spectramax-M5 plate reader.

[2] = test system: DR5; test: GFP immunoprecipitation: DR5 (FADD, caspase 8) recovered with GFP-tagged protein, Western blot; conditions: for fraction of DR5 IP'ed: GFP IP
Protocol: (§1) 15 cm dishes were seeded with 4 million HCT116 cells and allowed to recover for 18 hr prior to transfection. Samples were then transfected for 24 hr with the GFP-tagged ER trafficked protein, cytosolic GFP, or empty vector. To harvest apoptotic and living cells for each sample, all media and washes were collected. Cells were scraped in 2 ml of cold PBS and combined with the media and washes. Samples were centrifuged to pellet cells, washed with 1 ml cold PBS, and flash frozen in liquid N2 prior to lysis.
(§2) The cell pellets were resuspended in 750 μl of 30 mM HEPES pH 7.2, 150 mM NaCl, 1% Triton X-100 with 1x Roche protease inhibitor cocktail (if used subsequently for caspase glo 8 assay) or with 5x Roche protease inhibitor cocktail (if used for immunoblotting). The cells were lysed by mechanical shearing through a 25G needle for 13–15 plunges followed by incubation on ice for 30 min. The lysate was centrifuged at 2000xg for 5 min to remove debris and then incubated with 30 μl of GFP-Trap magnetic agarose beads (Chromotek gtma-20) for 4 hr at 4°C. The beads were then washed with 750 μl of lysis buffer for 10 min at 4°C for three rounds.
For Western blots, samples were eluted by adding 35 μl of non-reducing SDS gel loading buffer (50 mM Tris-HCl (pH 6.8), 2% SDS, 0.1% bromophenol blue, 10% glycerol) and incubated for 10 min at 70°C. The beads were then magnetically removed from the eluted sample before adding DTT to a final concentration of 25 mM. The entire sample was loaded onto the gel and immunoblotted for DR5, caspase 8, and GFP, in that order.

[3] = test system: caspase 8 in HCT116 lysates; test: Size-exclusion chromatography of cell lysates with caspase 8 activity; conditions: relative to GFP; 24 hr
Protocol: Size-exclusion fractionation of cell lysate was performed as previously described in [Lu et al. (2014)] with minor modifications.
In a 15 cm dish, 4 million HCT116 cells were seeded 18 hr prior to transfection (see Transient transfections for protein expression). 24 hr post-transfection, cells were harvested by collecting all media (to collect detached, dying cells) and scraping the dish in 3 ml of cold PBS. The cell suspension was centrifuged at 500xg to pellet the sample. Cells were washed with an additional 1 ml of cold PBS, pelleted, and flash frozen in liquid N2 prior to lysis.
Cells were resuspended in 600 μl of lysis buffer (30 mM HEPES pH 7.2, 150 mM NaCl, 1% Triton X-100) with 1x protease inhibitor (Roche) and lysed through a 25G needle with 10 passes. […]
For the caspase 8 activity assay, 10 μl of each fraction was incubated with 10 μl of the caspase glo 8 substrate (Promega #PRG8200) in a 384-well white walled plate (Corning 3574) for 45 min at RT before measuring luminescence on a Spectramax-M5 plate reader.
For Western blots, every three fractions were pooled for a total of 1.5 ml and subjected to TCA precipitation to concentrate the protein content. Samples were then analyzed by SDS-PAGE and immunoblotted for GFP and DR5.

[4] = test system: caspase 8 in HCT116 GFP-Trap immunoprecipitates; test: Caspase 8 activity (caspase glo 8) of GFP immunoprecipitates (beads)
Protocol: as §1, §2
For measuring caspase activity, a fifth of the beads was resuspended in 40 μl of 30 mM HEPES pH 7.2, 150 mM NaCl, 1% Triton X-100. 10 μl of the resuspended mixture was incubated with 10 ul of the caspase glo 8 luminogenic substrate (Promega #PRG8200) for 45 min at RT before measuring luminescence.

B1: MPZ-GFP: myelin protein zero with a C-terminal monomeric EGFP, expressed from plasmid (protein)
chain: IVVYTDREVHGAVGSRVTLHCSFWSSEWVSDDISFTWRYQPEGGRDAISIFHYAKGQPYIDEVGTFKERIQWVGDPRWKDGSIVIHNLDYSDNGTFTCDVKNPPDIVGKTSQVTLYVFEKVPTRYGVVLGAVIGGVLGVVLLLLLLFYVVRYCWLRRQAALQRRLSAMEKGKLHKPGKDASKRGRQTPVLYAMLDHSRSTKAVSEKKAKGLGESRKDKK
modifications: left off: monomeric EGFP, C-terminal, kept
notes: myelin protein zero with a C-terminal monomeric EGFP, expressed from plasmid
average fold change rel to empty ([1]; 3 hr): 0.9963 fold
average fold change rel to empty ([1]; 7 hr): 0.909 fold
average fold change rel to empty ([1]; 10 hr): 1.233 fold
average fold change rel to empty ([1]; 20 hr): 1.145 fold
average fold change rel to empty ([1]; 24 hr): 2.224 fold
average fold change ([1]; Rep 1, HCT116 lysate, amount not given, normalized RLUs relative to empty (GFP), average over four lysate dilutions): 2.827 fold
fold change relative to empty ([1]; input, dilution 0.01, rep1): 2.2
fold change relative to empty ([1]; input, dilution 0.01, rep2): 1.925
fold change relative to empty ([1]; input, dilution 0.01, rep3): 0.9528
fold change relative to empty ([1]; input, dilution 0.02, rep1): 2.798
fold change relative to empty ([1]; input, dilution 0.02, rep2): 1.811
fold change relative to empty ([1]; input, dilution 0.02, rep3): 1.706
avg fold change ([1]; input, dilution 0.02, second listing, relative to avg. empty, average of rep1-rep3): 1.9619
fold change relative to empty ([1]; input, dilution 0.02, second listing, rep2): 1.832
fold change relative to empty ([1]; input, dilution 0.02, second listing, rep3): 1.342
fold change in caspase 8 activity relative to empty, Mean ± SEM ([1]; inputs of GFP pulldown, n=6): 1.899 ± 0.2476, n=6 fold
fraction of DR5 IP'ed ([2]; run 2018-02-27): 0.1051
fraction of DR5 IP'ed ([2]; sheet 2019-12-12, replicate 2): 0.0582
fraction of DR5 IP'ed ([2]; sheet 2019-12-12, replicate 3): 0.1364
DR5 complex proteins in GFP immunoprecipitates ([2]; HCT116, 24 hr post-transfection): detected DR5, FADD, and caspase 8
fraction IP'ed ([2]; Rep 1 (first series)): 0.1051
fraction IP'ed ([2]; Rep 2 (first series)): 0.0582
fraction IP'ed ([2]; Rep 3 (first series)): 0.1364
% IP'ed ([2]; average of all replicates): 9.991%
fraction IP'ed, average ([2]; average of all replicates): 0.09991
beads (*diluton factor) ([2]; Rep 1 (first series)): 1453332
beads (*diluton factor) ([2]; Rep 2 (first series)): 11158310
beads (*diluton factor) ([2]; Rep 3 (first series)): 12501020
input (*dilution factor) ([2]; Rep 1 (first series)): 13824070
input (*dilution factor) ([2]; Rep 2 (first series)): 191711370
input (*dilution factor) ([2]; Rep 3 (first series)): 91647520
Mean ± SEM (fraction IP'ed) ([2]; unpaired t test sheet, GFP n=5, MPZ n=3, INS n=2, RHO n=2): 0.09991 ± 0.02272, n=3
95% confidence interval (difference between means) ([2]; vs. GFP, fraction IP'ed): 0.04255 to 0.1369
Difference between means ([2]; vs. GFP, fraction IP'ed, ± SEM): 0.0897 ± 0.01927
caspase 8 activity in high MW size exclusion fractions [3]: increased caspase 8 activity in high-molecular w8 (MW) fractions
average fold change in caspase 8 activity relative to empty ([4]; GFP IP beads, run 2019-02-05): 2.174 fold
average fold change (relative to empty average) ([4]; GFP beads, dilution 0.0666667, average of rep1-rep3): 3.5
fold change in caspase 8 activity, Mean ± SEM (unpaired t test) ([4]; GFP beads, n=3): 2.621 ± 0.4397, n=3 fold
average fold change in caspase 8 activity relative to empty ([4]; GFP beads, sheet 2018-02-11 (compiled as Rep 2019-02-11)): 3.5 fold
fold change in caspase 8 activity, average of averages ([4]; GFP beads, three runs compiled): 2.621 fold
caspase 8 activity of immunoprecipitates compared to empty beads ([4]; MPZ-GFP immunoprecipitates, 24 hr post-transfection): 2–3 fold
